We go through three molecules from US20180271994A1 (published 2018).

Test [1] deals with immunodominant epitope of the MUC18 antigen. Kind of test: phage ELISA, peptide coated at 100 ug/ml (control phage).
For a further test, the target named is T1, MUC18 antigen (human, UniProt P43121 24-646).
T1 sequence (looked up): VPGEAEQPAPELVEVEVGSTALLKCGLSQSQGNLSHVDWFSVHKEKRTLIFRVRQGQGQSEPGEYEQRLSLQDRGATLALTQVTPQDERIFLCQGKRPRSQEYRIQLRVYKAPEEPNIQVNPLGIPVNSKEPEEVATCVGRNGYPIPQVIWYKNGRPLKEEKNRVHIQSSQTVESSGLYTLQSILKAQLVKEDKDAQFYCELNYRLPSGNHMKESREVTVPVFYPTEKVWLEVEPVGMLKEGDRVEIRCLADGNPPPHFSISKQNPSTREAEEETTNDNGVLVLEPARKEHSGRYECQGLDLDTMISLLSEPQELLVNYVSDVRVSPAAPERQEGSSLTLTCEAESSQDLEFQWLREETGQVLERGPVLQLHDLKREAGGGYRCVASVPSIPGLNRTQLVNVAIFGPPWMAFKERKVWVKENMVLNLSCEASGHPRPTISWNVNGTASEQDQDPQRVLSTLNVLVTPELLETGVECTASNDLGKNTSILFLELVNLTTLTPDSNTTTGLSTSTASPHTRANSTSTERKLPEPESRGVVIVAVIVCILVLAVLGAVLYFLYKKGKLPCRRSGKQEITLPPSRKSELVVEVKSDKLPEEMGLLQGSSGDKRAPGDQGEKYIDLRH
Kind of test: cell-based or functional assay.

Test [2] deals with immunodominant epitope of the MUC18 antigen. As to the kind of experiment: phage ELISA, peptide well against negative control well.
For a further test, the target named is unrelated peptide. Kind of test: phage ELISA, well with unrelated peptide (control). (An ELISA detects its analyte on a solid surface through an enzyme-linked reagent.)
Test [3] deals with immunodominant epitope of the MUC18 antigen. Kind of test: phage ELISA, peptide coated at 100 ug/ml.

In test [1], unrelated phage gave a mean absorbance (OD 450 nm) of 0.17 OD450.

B1: anti-MUC18 human immunotoxin (other)
chain: GRGALVESGPGLVKPSETLFLTCTVSGGSISSYYWSWIRQPAGKGLEWIAYIYYSGSTNYNPSLKSRVTISVDTSNNQFSLKLSSVTAADTAVYYCAKLTAAGGHFDPWGQGTLVTVSSGGGGSGGGGSGGGGSDIVMTQSPSSLSASIGDRVTITCRASQGISNFLAWFQQKPGKAPKSLIYAASSLQSGVPSKFSGSGSGTDFTLAISSLQPEDFATYYCLQDSDYPLTFGGGTKLEIKRASGGPEGGSRHRQPRGWEQLADVVSLTCPVAAGECAGPADSGDALLERNYPTGAEFLGDGGAISFSTRGTQNWTVERLLQAHRQLEEGGYVFVGYHGTFLEAAQSIVFGGVRARSQDLDAIWAGFYIAGDPALAYGYAQDQEPDAAGRIRNGALLRVYVPRSSLPGFYATGLTLAAPEAAGEVERLIGHPLPLRLDAITGPEEAGGRLETILGWPLAERTVVIPSAIPTDPRNVGGDLDPSSIPDSEAAISALPDYASQPGKPPKDEL
As to B1, in the test with MUC18 antigen, the “IC50, MTT assay, A375 cells, 24 hours” value was ~2.1 nM and the “IC50, MTT assay, DU145 cells, 24 hours” value is ~6.1 nM.

B2: anti-MUC18 HscFv-displaying phage (scFv)
scFv: GRGALVESGPGLVKPSETLFLTCTVSGGSISSYYWSWIRQPAGKGLEWIAYIYYSGSTNYNPSLKSRVTISVDTSNNQFSLKLSSVTAADTAVYYCAKLTAAGGHFDPWGQGTLVTVSSGGGGSGGGGSGGGGSDIVMTQSPSSLSASIGDRVTITCRASQGISNFLAWFQQKPGKAPKSLIYAASSLQSGVPSKFSGSGSGTDFTLAISSLQPEDFATYYCLQDSDYPLTFGGGTKLEIKR
With B2, the fold OD over negative control well in test [2] was 4 fold. The mean absorbance (OD 450 nm) with unrelated peptide was determined as 0.1 OD450; in test [3], 1.6 OD450.
